Test results published in patent publication US20240417464A1 (published 2024).

Target: antibody-half molecule A7 with PF1H and PF1L-k0 (PF1H-DA303v2.n.HATF.B/PF1L-k0)
Assay: SPR (Biacore T200), about 50 RU of half molecule A captured on chip-bound biotinylated antigen peptide, half molecule B at 2.5 mg/mL as analyte (Example 10)
Experimental: The interaction between the obtained antibody-half molecules was analyzed using Biacore (registered trademark) T200. Biotin CAPture Kit, Series S (GE Healthcare) was used for the measurement, and HBS-EP+10X (GE Healthcare) diluted 1/10th was used as a running buffer. The measurement temperature was 25° C. For the sensor chip, Series S Sensor Chip CAP (GE Healthcare) onto which previously-biotinylated antigen peptides were allowed to interact and thereby immobilized was used. These chips were allowed to capture approximately 50 RU of the antibody-half molecule A of interest and then interact with the antibody-half molecule B of interest diluted with the running buffer at 2.5 mg/mL for 180 seconds at a flow rate of 30 μL/min, and measurement was carried out. The molar binding ratio was calculated based on the following Formula 2. The antibody-half molecule A captured on the chip was washed as described in the instructions attached to the kit, and the chip was regenerated and reused.
At this time, for the antibody-half molecule to be captured, PF1H (SEQ ID NO: 22), which is the H chain variable region portion of the anti-human IL6 receptor antibody described in WO 2009/041621, was used as the H chain variable region portion, PF1L (SEQ ID NO: 23), which is the L chain variable region portion of the anti-human IL6 receptor antibody described in WO 2009/041621, was used as the L chain variable region portion, and k0 was used as the L chain constant region portion. In addition, for the antibody-half molecules used as analytes, IC17H (SEQ ID NO: 24), which is the anti-KLH antibody described in WO 2015/174439, was used as the H chain variable region, IC17L (SEQ ID NO: 25), which is the anti-KLH antibody described in WO 2015/174439, was used as the L chain variable region, and k0 was used as L chain constant region.

Sequence of antibody-half molecule A7 with PF1H and PF1L-k0 (PF1H-DA303v2.n.HATF.B/PF1L-k0) (heavy, as listed by the source): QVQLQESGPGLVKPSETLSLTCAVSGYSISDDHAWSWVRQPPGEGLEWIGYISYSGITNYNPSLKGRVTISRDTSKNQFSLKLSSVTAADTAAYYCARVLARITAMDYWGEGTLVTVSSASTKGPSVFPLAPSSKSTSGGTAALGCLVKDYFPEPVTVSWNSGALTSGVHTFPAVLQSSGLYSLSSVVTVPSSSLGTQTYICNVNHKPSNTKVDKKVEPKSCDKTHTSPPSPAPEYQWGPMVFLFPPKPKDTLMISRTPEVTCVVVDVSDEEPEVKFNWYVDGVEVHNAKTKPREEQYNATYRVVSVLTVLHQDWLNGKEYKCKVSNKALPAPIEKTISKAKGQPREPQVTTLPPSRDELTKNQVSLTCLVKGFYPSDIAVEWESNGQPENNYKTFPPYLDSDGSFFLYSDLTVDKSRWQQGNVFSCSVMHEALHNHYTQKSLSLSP

molar binding ratio: 0.32 molar ratio
B1: antibody-half molecule B7 with IC17H and IC17L-k0 (IC17H-DB220v2.n.HATF.A/IC17L-k0) (antibody, human IgG1, kappa)
heavy: QVQLQQSGPQLVRPGASVKISCKASGYSFTSYWMHWVNQRPGQGLEWIGMIDPSYSETRLNQKFKDKATLTVDKSSSTAYMQLSSPTSEDSAVYYCALYGNYFDYWGQGTTLTVSSASTKGPSVFPLAPSSKSTSGGTAALGCLVKDYFPEPVTVSWNSGALTSGVHTFPAVLQSSGLYSLSSVVTVPSSSLGTQTYICNVNHKPSNTKVDKKVEPKSCDKTHTSPPSPAPELLGGPSVFLFPPKPKDTLMISRTPEVTCVVVDVSHEEPEVKFNWYVDGVEVHNAKTKPREEQYNSTYRVVSVLTVLHQDWLNGKEYKCKVSNDALPMPIEETISKAKGQPREPQVYTLPPSRDELTKNQVHLTCLVKGFYPSDIAVEWESNGQPENNYKTTPPYLDSDGSFALYSDLTVDKSRWQQGNVFSCSVMHEALHNHYTQKSLSLSP
light: DIQMTQSSSSFSVSLGDRVTITCKASEDIYNRLAWYQQKPGNAPRLLISGATSLETGVPSRFSGSGSGKDYTLSITSLQTEDVATYYCQQYWSTPYTFGGGTKLEVKRTVAAPSVFIFPPSDEQLKSGTASVVCLLNNFYPREAKVQWKVDNALQSGNSQESVTEQDSKDSTYSLSSTLTLSKADYEKHKVYACEVTHQGLSSPVTKSFNRGEC
